Reference: IntAct's records for PubMed 15483055

Biological target: pakc_dicdi pakC (UniProt Q55GV3)
Sequence (Q55GV3 whole entry): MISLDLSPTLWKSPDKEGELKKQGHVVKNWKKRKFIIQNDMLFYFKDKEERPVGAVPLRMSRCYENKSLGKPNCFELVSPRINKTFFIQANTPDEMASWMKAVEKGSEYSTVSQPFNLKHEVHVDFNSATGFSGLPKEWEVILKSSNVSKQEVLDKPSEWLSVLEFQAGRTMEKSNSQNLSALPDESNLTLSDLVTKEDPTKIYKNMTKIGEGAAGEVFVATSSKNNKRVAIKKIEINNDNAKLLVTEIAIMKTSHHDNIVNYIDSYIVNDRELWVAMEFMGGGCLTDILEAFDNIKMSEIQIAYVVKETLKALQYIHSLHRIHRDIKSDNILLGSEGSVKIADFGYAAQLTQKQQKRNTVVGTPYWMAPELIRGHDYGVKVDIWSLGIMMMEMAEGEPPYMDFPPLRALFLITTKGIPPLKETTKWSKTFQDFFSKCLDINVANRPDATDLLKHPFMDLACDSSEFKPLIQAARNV

Chain of Rho-related protein racB (Dictyostelium discoideum (Slime mold)), P34148 T17N (P34148 whole entry T17N): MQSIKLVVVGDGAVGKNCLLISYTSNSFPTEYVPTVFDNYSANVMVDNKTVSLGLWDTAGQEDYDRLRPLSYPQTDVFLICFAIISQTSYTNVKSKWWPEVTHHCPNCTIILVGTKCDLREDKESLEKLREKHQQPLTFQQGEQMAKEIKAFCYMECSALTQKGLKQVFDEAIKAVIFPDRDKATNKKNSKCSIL

Rho-related protein racB (Dictyostelium discoideum (Slime mold)), P34148 T17N
effect of a mutation on the interaction: decreasing interaction
